Laboratory results from patent publication US20180086841A1 (Merck Sharp & Dohme, published 2018).

T1: K31A
T1 construct: also called hCD27 K31A
T1 receptor chain: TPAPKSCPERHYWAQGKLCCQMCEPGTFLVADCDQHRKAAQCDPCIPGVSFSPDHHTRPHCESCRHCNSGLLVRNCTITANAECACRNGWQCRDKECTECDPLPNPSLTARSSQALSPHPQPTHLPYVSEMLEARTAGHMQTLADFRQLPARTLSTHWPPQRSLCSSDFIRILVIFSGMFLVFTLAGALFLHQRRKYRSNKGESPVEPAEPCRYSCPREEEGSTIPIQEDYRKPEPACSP

T2: Q41A
T2 construct: also called hCD27 Q41A
T2 receptor chain: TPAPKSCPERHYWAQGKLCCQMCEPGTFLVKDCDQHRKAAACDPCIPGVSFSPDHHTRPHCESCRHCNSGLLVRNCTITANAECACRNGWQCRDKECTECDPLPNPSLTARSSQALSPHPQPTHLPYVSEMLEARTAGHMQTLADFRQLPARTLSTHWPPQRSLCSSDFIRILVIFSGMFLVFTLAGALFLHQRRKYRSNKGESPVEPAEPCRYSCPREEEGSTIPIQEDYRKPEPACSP

T3: D43A
T3 construct: also called hCD27 D43A
T3 receptor chain: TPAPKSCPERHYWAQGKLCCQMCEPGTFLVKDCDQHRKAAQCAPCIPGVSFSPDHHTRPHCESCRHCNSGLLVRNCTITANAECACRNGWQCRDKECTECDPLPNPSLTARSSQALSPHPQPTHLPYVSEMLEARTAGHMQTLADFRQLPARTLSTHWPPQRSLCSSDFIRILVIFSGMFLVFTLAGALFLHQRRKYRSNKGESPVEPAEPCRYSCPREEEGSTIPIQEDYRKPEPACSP


Key:
human CD27 = biological target: T4, human CD27 (human, UniProt P26842 21-260); assay: flow cytometry MFI, CD8+ T cells of human PBMC, N=2 donors
T4 construct: also called hCD27; HsCD27
Protocol: Labeled cells were washed by re-suspending them in 150 ul of staining buffer (SB) followed by centrifugation at 300 g for 5 minutes. Cells were then resuspended in 100 ul of SB containing primary anti-CD27 antibodies at various concentrations, incubated in the dark at 4° C. for 30 minutes, followed by washing and centrifugation steps as previously described. […] Cells were incubated for 30 minutes at 4° C. in the dark, followed by washing and centrifugation steps. Next, cells were stained with a cocktail of phenotypic antibodies for surface markers (CD3, CD4, CD8, CD11b) and incubated for 30 minutes at 4° C. in the dark, followed by washing and centrifugation steps. […] Samples were acquired in a LSR-Fortessa flow cytometer (BD Biosciences) using the high throughput sampler and data analyzed by FlowJo software (Tree Star Inc).

K31A = biological target: T1, K31A; assay: flow cytometry on CHO-K1 transfectants, cell hatched (loss of binding)
Protocol: (§1) The ability of several anti-hCD27 antibodies to bind to a series of hCD27 alanine mutants was determined using CHO-K1 cells, transiently transfected pCI-neo empty vector, pCI-neo.hCD27 and several pCI-neo.CD27Ala mutant constructs.
(§2) Detached cells were transferred to 96 wells round-bottomed well plates at approximately 1.2×10⁵ cells/well. After spinning down the cells, discarding the supernatants and re-suspending the cells in the residual volume, the primary antibodies were added and incubated for 30 minutes at 4° C. Cells were washed three times with DPBS/BSA 1%, followed by centrifugation, discarding of the supernatants and re-suspension in the residual volume. […] After washing once, antibody binding was detected using the HTS plate reader (FACS Canto II) and FlowJo software for data analysis. Debris, dead cells and doublets were excluded from the analysis. Binding was expressed as the geometric mean of the FITC signal, relative to antibody binding to hCD27, which was set at 100%.

Q41A = biological target: T2, Q41A; assay: as above
Protocol: as §1, §2

D43A = biological target: T3, D43A; assay: as above
Protocol: as §1, §2

human CD27 (A59T) = biological target: T5, human CD27 (A59T) (human, UniProt P26842 21-260); assay: flow cytometry on transiently transfected CHO-K1 cells
T5 construct: also called hCD27 (A59T); human CD27 variant p.Ala59Thr

| Binder | EC50 (human CD27) | binding, WT hCD27 = 100 (GM FITC) (K31A) | binding, WT hCD27 = 100 (GM FITC) (Q41A) | binding, WT hCD27 = 100 (GM FITC) (D43A) | binding result (human CD27 (A59T)) |
| --- | --- | --- | --- | --- | --- |
| hCD27.131A (mouse parental 131A) (antibody, mouse IgG1, V domains shown, Mouse IgG1 antibody; also called mouse hCD27.131A) VH: QIQLVQSGPELKKPGETVKISCKASGYTFTNYGMNWVKQAPGKGLKWMGWINTNTGEPTYAEEFKGRFAFSLETSATTAYLQINNLKNEDTATYFCAREGDAMDYWGQGTSVTVSS VL: QIVLTQSPAIMSASPGEKVTMTCSASSSVSYMHWYQQKSGTSPKRWIYDTSKLASGVPARFSGSGSGTSYSLTISSMEAEDAATYYCQQWNSYPFTFGSGTKLEIK | 0.0194 nM | – | – | – | – |
| hCD27.15-6B (antibody, human IgG4 S228P, kappa, V domains shown, also called hCD27.15 (humanized 6B); humanized hCD27.15 (human IgG4, Clone 6B)) VH: QVQLVQSGAEVKKPGASVKVSCKASGFIIKATYMHWVRQAPGQRLEWMGRIDPANGETKYDPKFQVRVTITADTSASTAYMELSSLRSEDTAVYYCARYAWYFDVWGQGTLVTVSS VL: DIQMTQSPSSLSASVGDRVTITCRASENIYSFLAWYQQKPGKAPKLLIYHAKTLAEGVTSRFSGSGSGTDFTLTISSLQPEDSATYYCQHYYGSPLTFGQGTRLEIKR | – | 30.3% | 33.9% | 31% | no binding |
